The target of series [1] is BsSmcH-CC8(N634C) (Bacillus subtilis) (UniProt P51834). As to the kind of experiment: cross-linking; subunit exchange: equal amounts of two purified single-cysteine proteins mixed on ice, incubated at 37°C in 50 mM Tris-HCl pH 7.4, 200 mM NaCl, 1 mM TCEP; aliquots cross-linked with 200 µM BMOE (R558C to N634C at the hinge dimer interface); SDS-PAGE and Agilent 2100 Bioanalyzer; dimer to monomers.

The target of series [2] is Smc(D193C, mH, E1118Q)-HaloTag (Bacillus subtilis) (UniProt P51834). As to the kind of experiment: cross-linking; in vivo cysteine cross-linking: intact B. subtilis cells grown in SMG, 0.5 mM BMOE on ice; Smc-HaloTag labelled with HaloTag-TMR, SDS-PAGE, in-gel fluorescence; S152C and D193C report juxtaposed (disengaged) heads of the rod, K1151C ATP-engaged heads, A715C the arm/arm interface near the hinge.

Series [3] deals with Smc(S152C, mH, E1118Q)-HaloTag (Bacillus subtilis) (UniProt P51834). The series is described as above.
Series [4] deals with the molecule itself. As to the kind of experiment: crystal structure; BsSmcCC2, hanging drop, 4°C, PEG 3350, Tris pH 8, MPD, calcium acetate; space group P1, two dimers in the asymmetric unit.

The text below walks through data of paper PMC5526789, “Structure of Full-Length SMC and Rearrangements Required for Chromosome Organization” (Molecular Cell, 2017).

In series [1], “BsSmcH-CC8(R558C) (from UniProt P51834 519-637) (domain or fragment)” displayed a half-life of the hinge dimer (subunit exchange) of 49 min.

In the case of “Smc(D193C, mH, E1118Q)-HaloTag (from UniProt P51834 1-1186) (natural protein)”, in series [2], the cross-linking relative to wild type (% of wild-type levels) stood at 20.

As to “Smc(S152C, mH, E1118Q)-HaloTag (from UniProt P51834 1-1186) (natural protein)”, the cross-linking relative to wild type (% of wild-type levels) in series [3] turned out to be 20.

B1: BsSmcCC2 (domain or fragment, Bacillus subtilis)
chain: EKVQMAKEEELAESSAISAKEAKIEDTRDKIQALDESVDELQQVLLVTSEELEKLEGRKEVLKERKKNAVQNQEQLEEAIVQFQQKETVLKEELSKQEAVFETLQAEVKQLRAQVKEKQQALSLHNENVEEKIESGGSGGSRLTKQKQTQSSTKESLSNELTELKIAAAKKEQACKGEEDNLARLKKELTETELALKEAKEDLSFLTSEMSSSTSGEEKLEEAAKHKLNDKTKTIELIALRRDQRIKLQHGLDTYERELKEMKRLYKQKTTLLKDEEV
notes: Smc of Bacillus subtilis, residues 246-379 (N-terminal coiled-coil helix); linker; Smc of Bacillus subtilis, residues 793-929 (C-terminal coiled-coil helix); Selenomethionine-labelled protein was used for the SAD data; also called Smc middle segment; Bs Smc (246-379)/SGGSGGS/(793-929); source: E. coli BL21[DE3], purified (His-Trap, MonoQ, TEV cleavage, Superdex 200); not shown: His6, N-terminal, …
With B1, in series [4], the binding result is listed as “binds”.
